Reference: publication PMC4537477

Legend:
[1] = biological target: histone H3-H4 heterodimer (human) (UniProt P68431); assay: SEC; Superdex 200 10/300 GL; complex obtained at 0.5 mol/L NaCl; eluted at 14.38 mL, apparent molecular weight about 60 kDa; apparent stoichiometry also by Coomassie-stained SDS-PAGE
[2] = biological target: full-length human histone H3 (human) (UniProt P68431); assay: as above

stoichiometry N [1] | stoichiometry N [2] | Substance
1 |  | globular domain of ASF1a (aa 1–157) (from UniProt Q9Y294 1-157) (domain or fragment)
1 |  | N-terminal domain of human MCM2 (aa 63–154) (from UniProt P49736 63-154) (domain or fragment)
 | 1 | full-length human histone H4 (from UniProt P62805 1-103) (natural protein)
